# Reference: the supplement of paper PMC9233669
# Variants at the floor of the assay were thinned out.
# System: biotinyl-Phe-oxazolone
# Assay: self-aminoacylation, catalytic enhancement (BFO) (fold over background); higher = more active; k-Seq, kA / k0A0; sequences stand for … in GGGAAUGGAUCCACAUCUACGAAUUC…UUCACUGCAGACUUGACGAAGCUG
# Summary of the method: (§1)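 Catalytic enhancement equals the median kA over the uncatalyzed rate, the latter read from the low-activity peak of a bimodal Gaussian fit. Values of kA came from fitting each sequence's fraction reacted to a pseudo-first-order model, with 1000 bootstraps. Reacted RNA was captured with streptavidin and quantified by triplicate qPCR and Illumina sequencing after 90 minutes at room temperature with 2–1250 μM biotinyl-aminoacyl-oxazolone and 0.43 μM mutagenized RNA pools bearing a 21-nt variable region.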
row,Sequence,self-aminoacylation
1,AAACUUCAAACAAUCGGUCUG [Fam1A.1 aminoacylation ribozyme variant],30.9
2,AAGCUUCCUAAUAGUCGCAAG [Fam3.1 aminoacylation ribozyme variant],2.32
3,AAGCUUGAUAAUAGUCGCAAG [Fam3.1 aminoacylation ribozyme variant],2.72
4,AAGCUUGCUAAUAGUUGCAAG [Fam3.1 aminoacylation ribozyme variant],2.19
5,AAGGUUGCCAAUAGUCGCAAG [Fam3.1 aminoacylation ribozyme variant],2.4
6,AAGGUUGCUAAUAGUCGCACG [Fam3.1 aminoacylation ribozyme variant],2.39
7,AAGGUUGCUAAUAGUCGCAGG [Fam3.1 aminoacylation ribozyme variant],3.23
8,AAGUAUGCUAAUAGUCGCAAG [Fam3.1 aminoacylation ribozyme variant],22.9
9,AAGUUAGCUAAUAGUCGUAAG [Fam3.1 aminoacylation ribozyme variant],14
10,AAGUUCGCUAAUAGUCUCAAG [Fam3.1 aminoacylation ribozyme variant],2.72
11,AAGUUCGGUAAUAGUCGCAAG [Fam3.1 aminoacylation ribozyme variant],3.24
12,AAGUUCUCUAAUAGUCGCAAG [Fam3.1 aminoacylation ribozyme variant],3.34
13,AAGUUUACUAAUAGUCGAAAG [Fam3.1 aminoacylation ribozyme variant],2.51
14,AAGUUUCCUAAUAGUUGCAAG [Fam3.1 aminoacylation ribozyme variant],2.63
15,AAGUUUCCUAAUGGUCGCAAG [Fam3.1 aminoacylation ribozyme variant],2.62
16,AAGUUUGCUAACAGCCGCAAG [Fam3.1 aminoacylation ribozyme variant],3.09
17,AAGUUUGCUAAUGGUCGCAAC [Fam3.1 aminoacylation ribozyme variant],6.25
18,AAGUUUGCUGACAGUCGCAAG [Fam3.1 aminoacylation ribozyme variant],2.12
19,AAGUUUGCUUAUAGUCGCAAA [Fam3.1 aminoacylation ribozyme variant],2.38
20,AAGUUUUCCAAUAGUCGCAAG [Fam3.1 aminoacylation ribozyme variant],2.43
21,AAGUUUUCUAAUAGUCGCAAU [Fam3.1 aminoacylation ribozyme variant],2.37
22,AAGUUUUCUCAUAGUCGCAAG [Fam3.1 aminoacylation ribozyme variant],3.59

row,Sequence,self-aminoacylation
1,AAUACCCUGGUCAUCGAGUUA [Fam2.1 aminoacylation ribozyme variant],2.17
2,ACACACUUCAAGCGAUCGGUC [Fam1B.1 aminoacylation ribozyme variant],2.18
3,ACGUUUGCUAAUAGUCGCAGG [Fam3.1 aminoacylation ribozyme variant],3.87
4,ACGUUUGCUAAUAGUCGGAAG [Fam3.1 aminoacylation ribozyme variant],3.98
5,AGGUUUGCUUAUAGUCGCAAG [Fam3.1 aminoacylation ribozyme variant],2.89
6,AGGUUUUCUAAUAGUCGCAAG [Fam3.1 aminoacylation ribozyme variant],2.83
7,AGUACCCUGGUCAUCGAGUUA [Fam2.1 aminoacylation ribozyme variant],2.58
8,AUUAACCUAGGUCAUCGUGUG [Fam2.2 aminoacylation ribozyme variant],3.17
9,AUUACCCUGGUCAGCGAUUGA [Fam2.1 aminoacylation ribozyme variant],2.52
10,AUUACCCUGGUCAUCGUGUGG [Fam2.1 aminoacylation ribozyme variant],2.9
11,AUUACCCUGGUCGUCGAGUGG [Fam2.1 aminoacylation ribozyme variant],2.7
12,AUUAGCCUCGUCAUCGAGUGA [Fam2.1 aminoacylation ribozyme variant],2.19
13,AUUAGCCUGGUCAUCGAGUGC [Fam2.1 aminoacylation ribozyme variant],2.04
14,AUUCAACUAGGUCAUCGUGUG [Fam2.2 aminoacylation ribozyme variant],5.52
15,AUUCAACUAGGUCGUCGGGUG [Fam2.2 aminoacylation ribozyme variant],6.9
16,AUUCACCUACGUCAUCGGCUG [Fam2.2 aminoacylation ribozyme variant],2.24
17,AUUCACCUACUUCAUCGGGUG [Fam2.2 aminoacylation ribozyme variant],3.44
18,AUUCACCUAGCUCGUCGGGUG [Fam2.2 aminoacylation ribozyme variant],4.07
19,AUUCACCUAGGUCAUCGUGCG [Fam2.2 aminoacylation ribozyme variant],5.13
20,AUUCACCUAGGUCCUCGUGUG [Fam2.2 aminoacylation ribozyme variant],5.79
21,AUUCACCUAGGUGAUCGGGUC [Fam2.2 aminoacylation ribozyme variant],2.84
22,AUUCACCUAGUUCAUCGGGAG [Fam2.2 aminoacylation ribozyme variant],2.23

row,Sequence,self-aminoacylation
1,AUUCACCUAGUUCAUCGGGUU [Fam2.2 aminoacylation ribozyme variant],5.74
2,AUUCAGCUAGGUCAUCGGAUG [Fam2.2 aminoacylation ribozyme variant],2.91
3,CAGUUUCCUAAUAGUCGCAAG [Fam3.1 aminoacylation ribozyme variant],2.17
4,CCACACUUCAAACAACCGGUC [Fam1B.1 aminoacylation ribozyme variant],2.26
5,CCACACUUCAAGAAUUCGGUC [Fam1B.1 aminoacylation ribozyme variant],7.52
6,CCACUUCAAACAAUCGAUCUG [Fam1A.1 aminoacylation ribozyme variant],4.61
7,CCCCACUACAAGCAAUCGGUC [Fam1B.1 aminoacylation ribozyme variant],2.24
8,CCCCACUUCAAGCAAUAGGUC [Fam1B.1 aminoacylation ribozyme variant],2.02
9,CCUCACUUCAAGCAAUCGGAC [Fam1B.1 aminoacylation ribozyme variant],2.16
10,CUAAAUCAAACAAUCGGUCUG [Fam1A.1 aminoacylation ribozyme variant],3.19
11,CUAAUUCAAAUAAUCGGUCUG [Fam1A.1 aminoacylation ribozyme variant],2.58
12,CUACAUCAAACAAGCGGUCUG [Fam1A.1 aminoacylation ribozyme variant],4.11
13,CUACGUCAAACAAUUGGUCUG [Fam1A.1 aminoacylation ribozyme variant],2.06
14,CUACGUCAAACGAUCGGUCUG [Fam1A.1 aminoacylation ribozyme variant],3.76
15,CUACUUCAAACAAUCUGUCUG [Fam1A.1 aminoacylation ribozyme variant],3.23
16,CUACUUCAGACAUUCGGUCUG [Fam1A.1 aminoacylation ribozyme variant],6.22
17,CUACUUGAAACACUCGGUCUG [Fam1A.1 aminoacylation ribozyme variant],3.53
18,CUUCAUCAAACAAUCGGUCUG [Fam1A.1 aminoacylation ribozyme variant],2.05
19,UAGUUGGCUAAUAGUCGCAAG [Fam3.1 aminoacylation ribozyme variant],2.38
20,UAGUUUGCUCAUAGUCGCAAG [Fam3.1 aminoacylation ribozyme variant],2.67
21,UUUACCCUGGUCGUCGAGUGA [Fam2.1 aminoacylation ribozyme variant],5.7

# System: biotinyl-Trp-oxazolone
# Assay: self-aminoacylation, catalytic enhancement (BWO) (fold over background); higher = more active; k-Seq, kA / k0A0; sequences stand for … in GGGAAUGGAUCCACAUCUACGAAUUC…UUCACUGCAGACUUGACGAAGCUG
# Summary of the method: as §1
row,Sequence,self-aminoacylation
1,AAACUUCAAACAAUCGGUCUG [Fam1A.1 aminoacylation ribozyme variant],18.7
2,AAGAUUGCUAAUAGCCGCAAG [Fam3.1 aminoacylation ribozyme variant],2.47
3,AAGCUUGAUAAUAGUCGCAAG [Fam3.1 aminoacylation ribozyme variant],2.02
4,AAGGUUGCUAAUAGUCGCAGG [Fam3.1 aminoacylation ribozyme variant],2.28
5,AAGUAUGCUAAUAGUCGCAAG [Fam3.1 aminoacylation ribozyme variant],6.46
6,AAGUAUGCUAAUAGUCGCACG [Fam3.1 aminoacylation ribozyme variant],2.03
7,AAGUUAGCUAAUAGUCGUAAG [Fam3.1 aminoacylation ribozyme variant],3.54
8,AAGUUCUCUAAUAGUCGCAAG [Fam3.1 aminoacylation ribozyme variant],2.07
9,AAGUUGGCUAAUAGUCUCAAG [Fam3.1 aminoacylation ribozyme variant],2.27
10,AAGUUUGCGAAUAUUCGCAAG [Fam3.1 aminoacylation ribozyme variant],2.71
11,AAGUUUGCUAGUAGUCGCAAA [Fam3.1 aminoacylation ribozyme variant],2.13
12,AAUCACCUAGGUCAUAGGGUG [Fam2.2 aminoacylation ribozyme variant],2.15
13,AAUCACCUAGGUCAUCAGGUG [Fam2.2 aminoacylation ribozyme variant],2.18
14,AUUACGCUGGUCAUCGAGCGA [Fam2.1 aminoacylation ribozyme variant],2.16
15,AUUCACCUAGGUUAUCAGGUG [Fam2.2 aminoacylation ribozyme variant],2.12
16,CGACUUCAAACAACCGGUCUG [Fam1A.1 aminoacylation ribozyme variant],2.13
17,GUACUUUAAACAAUCGGUCUG [Fam1A.1 aminoacylation ribozyme variant],2.08
